We go through four molecules from patent publication US20230090156A1 (NANYANG TECHNOLOGICAL UNIVERSITY, published 2023).

To fix the notation:
B1: murine monoclonal antibody mAb11F6C4 (antibody, V domains shown)
VH: QITLKESGPGILKPSQTLSLTCSFSGFSLSTSGMGVGWIRQPSGKGLEWLAHIWWDDDKYYNPSLKSQLTISKDTSRNQVFLKITSVDTADTATYYCARKDYGSSYDYWGQGTTLTVSS
VL: DIVLTQSPASLAVSLGQRATISCKASQSVDYDGDSYLNWFQQKPGQPPKLLIYTASNLESGIPARFSGSGSGTDFTLNIHPVEEEDAATYYCQQSNEDPWTFGGGTTLEIK
notes: Murine monoclonal antibody, the parent of the humanized antibodies; also called Control 11F6C4; original mouse-derived mAb
B2: Antuzumab 1 (antibody, V domains shown)
VH: QVTLKESGPTLVKPTQTLTLTCTFSGFSLSTSGMGVGWIRQPPGKALEWLAHIWWDDDKYYNPSLKSRLTISKDTSKNQVVLTMTNMDPVDTATYYCARKDYGSSYDYWGQGTTVTVSS
VL: DIVMTQSPLSLPVTPGEPASISCKASQSVDYDGDSYLNWYLQKPGQSPRLLIYTASNLESGVPDRFSGSGSGTDFTLKISRVEAEDVGVYYCFQSNEDPWTFGQGTKLEIK
notes: Humanized monoclonal antibody made in CHO cells; also called ANG49; ANGH3 + ANGK3
B3: Antuzumab 2 (antibody, V domains shown)
VH: QITLKESGPTLVKPTQTLTLTCTFSGFSLSTSGMGVGWIRQPPGKALEWLAHIWWDDDKYYNPSLKSRLTITKDTSKNQVDLTMTFMDPWDTATYYCAHKDYGSSYDYWGQGTLVTVSS
VL: DIQMTQSPSSLSASVGDRVTITCKASQSVDYDGDSYLNWYQQKPGKAPNLLIYTASNLESGVPSRFSGSGSGTDFTLTISSLQPEDFATYYCQQSNEDPWTFGEGTKVEIK
notes: Humanized monoclonal antibody made in CHO cells; also called ANG50; ANGH4 + ANGK4
B4: Antuzumab 3 (antibody, V domains shown)
VH: QITLKESGPTLVKPTQTLTLTCTFSGFSLSTSGMGVGWIRQPPGKALEWLAHIWWDDDKYYNPSLKSRLTITKDTSKNQVVLTMTNMDPVDTATYYCARKDYGSSYDYWGQGTLVTVSS
VL: DIVMTQSPDSLAVSLGERATINCKASQSVDYDGDSYLNWYQQKPGQPPKLLIYTASNLESGVPDRFSGSGSGTDFTLTISSLQAEDVAVYYCQQSNEDPWTFGQGTKVEIK
notes: Humanized monoclonal antibody made in CHO cells; also called ANG27; ANGH1 + ANGK1

The assay addresses T1, human cANGPTL4 (C-terminal fragment of Angiopoietin-like 4 protein) (human, UniProt Q9BY76 186-406, limits assumed).
T1 construct: domain: C-terminal fragment (cANGPTL4); Purified cANGPTL4 was immobilised by amine coupling on the CM5 chip for SPR and on carboxylated microwell plates for ELISA; also called purified cANGPTL4; human cANGPTL4 antigen
T1 sequence (looked up): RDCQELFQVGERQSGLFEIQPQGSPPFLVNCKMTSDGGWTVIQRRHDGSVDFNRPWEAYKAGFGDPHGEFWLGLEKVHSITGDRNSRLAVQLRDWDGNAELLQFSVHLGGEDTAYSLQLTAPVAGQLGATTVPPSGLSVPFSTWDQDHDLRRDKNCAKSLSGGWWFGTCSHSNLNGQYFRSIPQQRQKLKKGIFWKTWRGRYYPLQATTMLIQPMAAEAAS
The assay can be described thus: SPR (BIACORE 3000), cANGPTL4 amine-coupled to CM5 chip, antibody as analyte. The method, then:
Surface Plasmon Resonance (SPR): Sensor CM5 chips and amine coupling kits were from GE Healthcare. Purified cANGPTL4 was immobilized onto a CM5-carboxylated dextran sensor chip by amine coupling using the Surface Prep Module of BIACORE 3000 as recommended by the manufacturer (BIAcore). Antuzumab (0.16, 0.32, 0.63, 1.25, 2.50, and 5.0 μm) diluted and buffered with 50 mm Tris, pH 8.0, was introduced into the cANGPTL4-conjugated CM5 chip at a flow rate of 5 μI/min for 10 min with running buffer (50 mm Tris, pH 8.0, 100 mm NaCl). After incubation for 45 s, the chamber was washed with the same buffer, and the bound molecules were subsequently eluted using 10 mm glycine, pH 6.0. The CM5 chip was reused after washing with running buffer for 10 min at 20 μI/min. Each sensorgram was corrected by subtracting a sensorgram obtained from a reference flow cell with no immobilized protein. Global fitting of the SPR data was used to determine the association (Kₐₛₛ) and dissociation (Kdiss) with Scrubber 2 software. Values are given as the mean±S.D. of three independent preparations of Antuzumab.
Background: In SPR one partner is held on a chip, and binding of the other changes the refractive index at the surface.
In general, Kd refers to the equilibrium constant for the complex coming apart. What is called koff is the rate constant with which the complex falls apart. A high value points to fast dissociation. The kon is the second-order rate constant of association. As for B1, the “Fold increase (affinity against control 11F6C4)” value (shortened to “Fold increase”) worked out at 1 fold, the Kd is 8.28 nM, the koff is 0.000905 s⁻¹ and the kon came out at 109000 M⁻¹ s⁻¹.
The corresponding values for B2 are 7.86 fold, 1.05 nM, 0.000693 s⁻¹ and 658000 M⁻¹ s⁻¹.
B3: the “Fold increase” value came to 5.37 fold; the affinity, expressed as Kd, was 1.54 nM; the koff worked out at 0.000764 s⁻¹; the kon was determined as 495000 M⁻¹ s⁻¹.
Regarding B4, the “Fold increase” value stood at 1.85 fold, the equilibrium dissociation constant (Kd) amounted to 4.47 nM, the koff turned out to be 0.000948 s⁻¹ and the kon came out at 212000 M⁻¹ s⁻¹.
